Measured values taken from publication PMC10425845 (The EMBO Journal, 2023).
Where two headings read alike, the source gives them in different places.

T1: His-Sumo-IHO1 1-281 (mouse, UniProt Q6PDM4 1-281)
T1 sequence (looked up): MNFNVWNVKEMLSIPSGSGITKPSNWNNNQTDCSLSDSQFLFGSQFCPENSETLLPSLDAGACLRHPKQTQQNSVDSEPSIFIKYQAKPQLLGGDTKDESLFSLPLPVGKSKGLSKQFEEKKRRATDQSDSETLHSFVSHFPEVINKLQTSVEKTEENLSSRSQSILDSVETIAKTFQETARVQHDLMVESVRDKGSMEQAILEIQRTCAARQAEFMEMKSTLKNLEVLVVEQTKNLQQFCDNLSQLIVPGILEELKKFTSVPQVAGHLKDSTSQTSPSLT

T2: His-MBP-IHO1 1-281 (mouse, UniProt Q6PDM4 1-281)
T2 sequence (looked up): T1 sequence (looked up)

T3: His-MEI4 1-127 (mouse, UniProt Q8BRM6 1-127)
T3 sequence (looked up): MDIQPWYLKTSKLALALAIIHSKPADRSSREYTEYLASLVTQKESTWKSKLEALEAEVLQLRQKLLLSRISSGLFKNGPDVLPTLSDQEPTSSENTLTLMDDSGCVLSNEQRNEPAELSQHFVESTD

T4: Strep-REC114 1-159 (PH domain) (mouse, UniProt Q9CWH4 1-159)
T4 sequence (looked up): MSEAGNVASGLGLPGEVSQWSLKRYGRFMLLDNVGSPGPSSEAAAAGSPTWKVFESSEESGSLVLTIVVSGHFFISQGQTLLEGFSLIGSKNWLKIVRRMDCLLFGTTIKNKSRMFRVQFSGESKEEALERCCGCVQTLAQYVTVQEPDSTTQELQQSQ

T5: MEI4 1-43 (untagged) (mouse, UniProt Q8BRM6 1-43)
T5 chain (looked up): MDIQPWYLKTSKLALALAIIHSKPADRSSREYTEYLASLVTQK

B1: Strep-REC114 (full-length mouse REC114 with a single N-terminal Strep-tag) (natural protein, UniProt Q9CWH4 1-259, looked up)
chain: MSEAGNVASGLGLPGEVSQWSLKRYGRFMLLDNVGSPGPSSEAAAAGSPTWKVFESSEESGSLVLTIVVSGHFFISQGQTLLEGFSLIGSKNWLKIVRRMDCLLFGTTIKNKSRMFRVQFSGESKEEALERCCGCVQTLAQYVTVQEPDSTTQELQQSQGPREAGESQGKDPLQQGPSLTLEQHVCMAAGAGVLQERTSVTHRAQSILAPEKLTLAYEGSSWGTEELGPFLRLCLMDQNFPAFVEEVEKELKKITGLRN
B2: TOPOVIBL 452-579 (domain or fragment, mouse, UniProt J3QMY9 452-579, looked up)
chain: SCDTEQHLTPEKNISAQNTKDQHKNIAQEFPEESIGQAENKRPKRGSPNHGREESRVLGSARDRSPPKSATRDRELTEVSLTARGSQTQAAHGRAQAAEAASPAGGLEDLWLQEVSNLSEWLNPGHRS
B3: IHO1 1-281 (domain or fragment, mouse, UniProt Q6PDM4 1-281, looked up)
chain: T1 sequence (looked up)
B4: IHO1 125-261 (domain or fragment, mouse, UniProt Q6PDM4 125-261, looked up)
chain: ATDQSDSETLHSFVSHFPEVINKLQTSVEKTEENLSSRSQSILDSVETIAKTFQETARVQHDLMVESVRDKGSMEQAILEIQRTCAARQAEFMEMKSTLKNLEVLVVEQTKNLQQFCDNLSQLIVPGILEELKKFTS
B5: MBP-IHO1 125-261 (MBP joined by a five-residue linker) (domain or fragment, mouse, UniProt Q6PDM4 125-261, looked up)
chain: B4 chain
B6: IHO1 125-281 (domain or fragment, mouse, UniProt Q6PDM4 125-281, looked up)
chain: ATDQSDSETLHSFVSHFPEVINKLQTSVEKTEENLSSRSQSILDSVETIAKTFQETARVQHDLMVESVRDKGSMEQAILEIQRTCAARQAEFMEMKSTLKNLEVLVVEQTKNLQQFCDNLSQLIVPGILEELKKFTSVPQVAGHLKDSTSQTSPSLT

Experiments:
[1] = target: REC114 226-254-MEI4 1-43 minimal complex (mouse) (UniProt Q9CWH4); test: AUC
[2] = target: REC114 226-254-MEI4 1-43 minimal complex (mouse) (UniProt Q9CWH4); test: AUC; remark: listed apart in the source
[3] = target: Strep-REC114-His-MEI4 1-127 complex (mouse) (UniProt Q9CWH4); test: native MS
[4] = target: Strep-REC114-His-MEI4 1-127 complex (mouse) (UniProt Q9CWH4); test: SEC-MALS
[5] = target: T1, His-Sumo-IHO1 1-281; test: SEC
[6] = target: T2, His-MBP-IHO1 1-281; test: SEC
[7] = target: T3, His-MEI4 1-127; test: native MS
[8] = target: the molecule itself; test: SEC-MALS
[9] = target: T3, His-MEI4 1-127; test: SEC-MALS
[10] = target: the molecule itself; test: SEC-MALS; remark: listed apart in the source
[11] = target: B1; test: SEC
[12] = target: Strep-REC114-His-MEI4 1-127 complex (mouse) (UniProt Q9CWH4); test: ITC
[13] = target: T4, Strep-REC114 1-159 (PH domain); test: ITC
[14] = target: the molecule itself; test: SEC-MALS; remark: listed apart in the source
[15] = target: B1; test: pull-down
[16] = target: T5, MEI4 1-43 (untagged); test: AUC

REC114 226-254-MEI4 1-43 minimal complex (from UniProt Q9CWH4 226-254; Q8BRM6 1-43)
stoichiometry N [1]: 2 | stoichiometry N [2]: 2

Strep-REC114-His-MEI4 1-127 complex (from UniProt Q9CWH4 1-259; Q8BRM6 1-127)
stoichiometry N [3]: 2 | stoichiometry N [4]: 2

B1
binding result [5]: binds | binding result [6]: binds | stoichiometry N [7]: 1 | binding result [8]: binds | stoichiometry N [9]: 2

GSMEQAILEIQRTCAARQAEFMEMKSTLKNLEVLVVEQTKNLQQFCDNLS (domain or fragment, mouse, UniProt Q6PDM4 196-245, looked up) [IHO1 196-245]
stoichiometry N [10]: 4

B2
binding result [11]: binds

B3
Kd [12]: 26.9 µM | stoichiometry N [10]: 4

B4
stoichiometry N [10]: 4

B5
stoichiometry N [10]: 4

MNFNVWNVKEMLSIPSGSGITKP (domain or fragment, mouse, UniProt Q6PDM4 1-23, looked up) [His-MBP-IHO1 1-23]
Kd [13]: 30.4 µM | Kd [12]: 31.9 µM

WGTEEDGPFLRLCLMDQNFPAFVEEVEKELKKITG (domain or fragment, mouse, UniProt Q9CWH4 222-256, looked up) [His-MBP-REC114 222-256 L227D]
binding result [14]: binds

MDIQPWYLKTSKLALALAIIHSKPADRSSREYTEYLASLVTQK (domain or fragment, mouse, UniProt Q8BRM6 1-43, looked up) [His-MBP-MEI4 1-43]
binding result [15]: binds

ELGPFLRLCLMDQNFPAFVEEVEKELKKI (domain or fragment, mouse, UniProt Q9CWH4 226-254, looked up) [REC114 226-254 (untagged)]
stoichiometry N [16]: 2

ELGPFLRLCLMDQNFPAFVEEVEKELKKI (domain or fragment, mouse, UniProt Q9CWH4 226-254, looked up) [His-MBP-REC114 226-254]
stoichiometry N [14]: 2

B6
stoichiometry N [10]: 4
